One protein from ChEMBL document CHEMBL2074234, “Functional expression of the canalicular bile salt export pump of human liver” (Gastroenterology, 2002) can be followed below.

Holding throughout (assay type): functional, cell membranes, Membrane vesicle
Substrate in series [1]: C[C@H](CCC(=O)NCC(=O)O)[C@H]1CC[C@H]2[C@@H]3[C@H](O)C[C@@H]4C[C@H](O)CC[C@]4(C)[C@H]3C[C@H](O)[C@]12C
The series is described as follows: (§1) TP_TRANSPORTER: uptake in membrane vesicles isolated from Bsep-expressing Sf9 cells.

Substrate in series [2]: C[C@H](CCC(=O)NCCS(=O)(=O)O)[C@H]1CC[C@H]2[C@@H]3[C@@H](O)C[C@@H]4C[C@H](O)CC[C@]4(C)[C@H]3CC[C@]12C
Described as §1.

Substrate in series [3]: C[C@H](CCC(=O)NCCS(=O)(=O)O)[C@H]1CC[C@H]2[C@@H]3[C@H](O)C[C@@H]4C[C@H](O)CC[C@]4(C)[C@H]3CC[C@]12C
Described as §1.

B1: Bile salt export pump (Homo sapiens) (protein)
chain: MSDSVILRSIKKFGEENDGFESDKSYNNDKKSRLQDEKKGDGVRVGFFQLFRFSSSTDIWLMFVGSLCAFLHGIAQPGVLLIFGTMTDVFIDYDVELQELQIPGKACVNNTIVWTNSSLNQNMTNGTRCGLLNIESEMIKFASYYAGIAVAVLITGYIQICFWVIAAARQIQKMRKFYFRRIMRMEIGWFDCNSVGELNTRFSDDINKINDAIADQMALFIQRMTSTICGFLLGFFRGWKLTLVIISVSPLIGIGAATIGLSVSKFTDYELKAYAKAGVVADEVISSMRTVAAFGGEKREVERYEKNLVFAQRWGIRKGIVMGFFTGFVWCLIFLCYALAFWYGSTLVLDEGEYTPGTLVQIFLSVIVGALNLGNASPCLEAFATGRAAATSIFETIDRKPIIDCMSEDGYKLDRIKGEIEFHNVTFHYPSRPEVKILNDLNMVIKPGEMTALVGPSGAGKSTALQLIQRFYDPCEGMVTVDGHDIRSLNIQWLRDQIGIVEQEPVLFSTTIAENIRYGREDATMEDIVQAAKEANAYNFIMDLPQQFDTLVGEGGGQMSGGQKQRVAIARALIRNPKILLLDMATSALDNESEAMVQEVLSKIQHGHTIISVAHRLSTVRAADTIIGFEHGTAVERGTHEELLERKGVYFTLVTLQSQGNQALNEEDIKDATEDDMLARTFSRGSYQDSLRASIRQRSKSQLSYLVHEPPLAVVDHKSTYEEDRKDKDIPVQEEVEPAPVRRILKFSAPEWPYMLVGSVGAAVNGTVTPLYAFLFSQILGTFSIPDKEEQRSQINGVCLLFVAMGCVSLFTQFLQGYAFAKSGELLTKRLRKFGFRAMLGQDIAWFDDLRNSPGALTTRLATDASQVQGAAGSQIGMIVNSFTNVTVAMIIAFSFSWKLSLVILCFFPFLALSGATQTRMLTGFASRDKQALEMVGQITNEALSNIRTVAGIGKERRFIEALETELEKPFKTAIQKANIYGFCFAFAQCIMFIANSASYRYGGYLISNEGLHFSYVFRVISAVVLSATALGRAFSYTPSYAKAKISAARFFQLLDRQPPISVYNTAGEKWDNFQGKIDFVDCKFTYPSRPDSQVLNGLSVSISPGQTLAFVGSSGCGKSTSIQLLERFYDPDQGKVMIDGHDSKKVNVQFLRSNIGIVSQEPVLFACSIMDNIKYGDNTKEIPMERVIAAAKQAQLHDFVMSLPEKYETNVGSQGSQLSRGEKQRIAIARAIVRDPKILLLDEATSALDTESEKTVQVALDKAREGRTCIVIAHRLSTIQNADIIAVMAQGVVIEKGTHEELMAQKGAYYKLVTTGSPIS
What is called Km is the concentration of substrate that gives half-maximal velocity. As for B1, the Km in series [1] was determined as 11.1 µM; in series [2] it was 11.9 µM; in series [3] it was 4.8 µM.
